One assay has as its target T1, FcγR1 (CD64) (human, UniProt P12314 16-374).
T1 construct: whole, on cells
Description: cell binding, FcγR-engineered HEK293 cells.

Another assay concerns the target T2, FcγR2B (human, UniProt P31994 43-310).
T2 construct: whole, on cells
T2 sequence (looked up): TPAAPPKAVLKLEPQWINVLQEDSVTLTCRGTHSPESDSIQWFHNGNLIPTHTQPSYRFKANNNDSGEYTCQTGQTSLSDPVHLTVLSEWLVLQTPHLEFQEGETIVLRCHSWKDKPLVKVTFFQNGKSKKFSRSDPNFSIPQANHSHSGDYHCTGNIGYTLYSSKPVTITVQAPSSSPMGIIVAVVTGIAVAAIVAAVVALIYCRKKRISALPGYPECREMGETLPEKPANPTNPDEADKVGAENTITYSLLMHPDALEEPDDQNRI
Description: cell binding, FcγR-engineered HEK293 cells.

In another assay the target is T3, FcγR3A (CD16aV158) (human, UniProt P08637 17-254).
T3 construct: whole, on cells
Description: cell binding, FcγR-engineered HEK293 cells.

The target in assay [1] is T4, cynomolgus SIRPα on cells (cynomolgus, UniProt P78324 31-373 (human entry)).
T4 construct: also called cyno SIRPα-CHO; Cyno SIRPα-CHO-K1; not shown: Transmembrane and cytoplasmic region of cynomolgus SIRPα
T4 chain: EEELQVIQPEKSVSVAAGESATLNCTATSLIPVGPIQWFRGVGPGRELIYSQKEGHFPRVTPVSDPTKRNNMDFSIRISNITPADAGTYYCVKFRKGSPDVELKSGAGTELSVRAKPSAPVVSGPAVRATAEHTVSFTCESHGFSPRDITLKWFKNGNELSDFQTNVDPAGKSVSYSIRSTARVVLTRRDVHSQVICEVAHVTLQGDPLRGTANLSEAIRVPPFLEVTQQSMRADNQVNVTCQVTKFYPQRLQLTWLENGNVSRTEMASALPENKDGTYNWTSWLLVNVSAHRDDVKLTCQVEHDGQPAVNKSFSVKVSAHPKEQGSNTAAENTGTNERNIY
Put plainly: flow cytometry of cynomolgus whole blood, gated CD14+ cells, Donor 1.

Assay [2] has as its target T4, cynomolgus SIRPα on cells. Description: flow cytometry of cynomolgus whole blood, gated CD14+ cells, Donor 2. A general note: Flow cytometry measures light scatter and fluorescence of single cells or particles in a stream.
In assay [3] the target is T4, cynomolgus SIRPα on cells. Description: flow cytometry, cyno whole blood, gated CD14+ population, PE-conjugated antibody, one of two donors.
The target of assay [4] is T5, mouse SIRPα on cells (mouse, UniProt P97797 32-513).
T5 construct: whole, on cells; also called mouse SIRPα-CHO-K1; Ms SIRPα-CHO-K1
T5 sequence (looked up): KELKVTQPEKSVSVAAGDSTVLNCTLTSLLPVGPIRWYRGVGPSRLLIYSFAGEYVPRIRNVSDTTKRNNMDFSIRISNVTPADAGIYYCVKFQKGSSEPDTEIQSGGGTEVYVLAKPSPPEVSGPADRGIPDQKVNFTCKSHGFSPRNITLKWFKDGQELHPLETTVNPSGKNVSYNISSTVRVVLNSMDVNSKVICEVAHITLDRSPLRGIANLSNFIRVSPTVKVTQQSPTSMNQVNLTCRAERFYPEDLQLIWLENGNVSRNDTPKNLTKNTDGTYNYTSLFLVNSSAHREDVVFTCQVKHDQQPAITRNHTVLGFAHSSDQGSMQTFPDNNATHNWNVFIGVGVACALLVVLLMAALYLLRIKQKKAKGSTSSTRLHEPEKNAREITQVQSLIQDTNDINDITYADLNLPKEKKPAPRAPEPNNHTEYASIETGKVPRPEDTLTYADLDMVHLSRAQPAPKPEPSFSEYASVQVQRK
Put plainly: flow cytometry, C57/BL6 macrophages, anti-human Fc detection; C57/BL6 macrophages (whole cells), not SIRPα-CHO-K1.

The target of assay [5] is T5, mouse SIRPα on cells. Put plainly: flow cytometry, C57BL/6-CD11b+ Cell Binding.
Assay [6] addresses T5, mouse SIRPα on cells. Put plainly: flow cytometry competition on C57/BL6 macrophages, competitor mCD47-hFc 6.7 nM, antibody at 0.5 nM or more.

Where only a bound is given, the exact number is not on record here.

As a reminder, the EC50 is the concentration that produces a half-maximal response. The low end stands for a more potent agent, the high end for a less potent agent. The term EC50 (read off the curve) denotes the concentration at which the effect is half-maximal. High values mean a less potent agent, low ones a more potent agent.

T1 sequence (P12314 16-374): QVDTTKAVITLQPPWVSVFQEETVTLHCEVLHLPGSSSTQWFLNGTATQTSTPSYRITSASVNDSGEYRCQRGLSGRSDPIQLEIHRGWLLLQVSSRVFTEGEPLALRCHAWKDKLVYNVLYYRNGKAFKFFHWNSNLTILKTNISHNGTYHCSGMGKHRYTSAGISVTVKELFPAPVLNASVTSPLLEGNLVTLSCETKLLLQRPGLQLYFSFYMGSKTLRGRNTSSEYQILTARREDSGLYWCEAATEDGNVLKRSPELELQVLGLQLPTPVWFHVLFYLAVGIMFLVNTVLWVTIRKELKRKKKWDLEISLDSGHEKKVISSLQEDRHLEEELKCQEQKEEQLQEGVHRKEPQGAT
T3 sequence (P08637 17-254 F176V): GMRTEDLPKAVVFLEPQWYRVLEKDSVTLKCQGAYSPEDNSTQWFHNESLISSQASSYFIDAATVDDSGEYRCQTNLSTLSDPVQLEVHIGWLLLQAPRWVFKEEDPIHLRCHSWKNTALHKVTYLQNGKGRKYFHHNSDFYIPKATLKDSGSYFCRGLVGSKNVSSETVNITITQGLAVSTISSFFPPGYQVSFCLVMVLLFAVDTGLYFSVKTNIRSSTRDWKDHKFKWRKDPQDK

B1: SIRPAB-11-4PE (antibody, human IgG4 S228P, kappa)
light: DIQMTQSPSSVSASVGDRVTITCRASQGISSWLAWYQQKPGKAPKLLIYAASNLQSGVPSRFSGSGSGTDFTLTISSLQPEDFATYYCQQGASFPITFGGGTKVEIKRTVAAPSVFIFPPSDEQLKSGTASVVCLLNNFYPREAKVQWKVDNALQSGNSQESVTEQDSKDSTYSLSSTLTLSKADYEKHKVYACEVTHQGLSSPVTKSFNRGEC
heavy: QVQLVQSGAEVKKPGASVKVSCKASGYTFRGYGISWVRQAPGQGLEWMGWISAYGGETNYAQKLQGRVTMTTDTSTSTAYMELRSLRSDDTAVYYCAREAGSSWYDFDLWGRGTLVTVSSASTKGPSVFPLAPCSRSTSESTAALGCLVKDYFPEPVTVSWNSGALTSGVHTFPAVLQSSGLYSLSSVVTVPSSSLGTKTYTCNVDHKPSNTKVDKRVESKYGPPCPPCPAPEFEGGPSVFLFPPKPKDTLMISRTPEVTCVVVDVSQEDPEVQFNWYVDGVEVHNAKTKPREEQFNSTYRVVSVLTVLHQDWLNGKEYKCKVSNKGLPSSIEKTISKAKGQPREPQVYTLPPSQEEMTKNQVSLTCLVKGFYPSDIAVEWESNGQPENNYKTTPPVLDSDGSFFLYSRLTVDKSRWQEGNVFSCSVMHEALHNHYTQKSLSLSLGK
notes: human IgG4 with S228P and L235E; also called SIRPAB-11-IgG4PE; SIRPAB-11-IgG4PE-AF647
As for B1, the concentration for a half-maximal effect (EC50) with FcγR1 (CD64) was found to be 756 nM; in the assay with FcγR2B, 5180 nM; in the assay with FcγR3A (CD16aV158) it was 2060 nM; in [1], 0.426 nM; in [2], 0.39 nM; in [3] it was 0.43 nM.

B2: mCD47-hFc (Fc fusion, mouse, UniProt Q61735 19-140, looked up, not shown: a dimerising Fc or GST)
chain: QLLFSNVNSIEFTSCNETVVIPCIVRNVEAQSTEEMFVKWKLNKSYIFIYDGNKNSTTTDQNFTSAKISVSDLINGIASLKMDKRDAMVGNYTCEVTELSREGKTVIELKNRTVSWFSPNEK
notes: also called recombinant mouse CD47
Molecule B2 displayed an EC50 with mouse SIRPα on cells [4] of 6.7 nM.

B3: SIRPAB-21 with mouse IgG2a (antibody, V domains shown)
VH: QVQLQESGPGLVKPSQTLSLTCTVSGGSISSGGYYWSWIRQHPGKGLEWIGAIYYSGPIYYNPSLKSRVTISVDTSKNQFSLKLSSVTAADTAVYYCSKEGYHSGMDVWGQGTTVTVSS
VL: DIQMTQSPSSLSASVGDRVTITCQASDDISDYLNWYQQKPGKAPKLLIYDASNLETGVPSRFSGSGSGTDFTFTISSLQPEDIATYYCQQFAYLPWTFGGGTKVEIK
As to B3, the “EC50 (read off the curve)” value with mouse SIRPα on cells [5] is approximately 0.3 nM. Moreover, the “percent of mCD47 binding blocked” value in the assay with mouse SIRPα on cells [6] is more than 90%.

The values above are taken from patent US20200102387A1 (CELGENE, published 2020).
